Laboratory results reported in paper PMC3861672.

Biological target: Fps1 (UniProt P23900)
Experiment: BiFC, split CFP
Conditions: reference: no sorbitol

other: percent of cells with detectable fluorescence: stronger; reference 27.6
Substance: Hog1 (from UniProt P32485) 1 M sorbitol, 5 min
